Results from the DeepSol protein solubility set.

Test: soluble on expression in E. coli; label from the status in PepcDB or PDB records

Sequence	soluble on expression in E. coli
MGSDKIHHHHHHMFGLIGHLTSLEHAQAVAQELGYPEYADQGLDFWCSAPPQIVDSIIVTSVTGQQIEGRYVESCFLPEMLASRRIKAATRKILNAMAHAQKHGINITALGGFSSIIFENFKLEQFSQVRNIKLEFERFTTGNTHTAYIICKQVEEASKQLGINLSNATVAVCGATGDIGSAVTRWLDARTDVQELLLIARDQERLKELQGELGRGKIMGLTEALPQADVVVWVASMPRGVEIDPTTLKQPCLLIDGGYPKNLATKIQYPGVHVLNGGIVEHSLDIDWKIMKIVNMDVPARQLFACFAESMLLEFEKLYTNFSWGRNQITVDKMEQIGRVSVKHGFRPLLV	not soluble
MGSDKIHHHHHHMFKKLAADLTGFSDIGQVIHPDDFDKAAADDYVLHEDGEKIYFLIKSKTDEYCFTNLALVHLDGESAVSSKRVLYRYPYAHYPIRHVMFETAGTVDLDVEIKFEIGGKHYSIDVDKKQLEHVKDLYKALLAIAEKQYEGQKMLEFANSSLNHSVTILGGLRQGDMNVPQTFKDLSQESFDWLQGHYYKWNQKDFGSFYEKYINN	not soluble
MGSDKIHHHHHHMFKPQGLYDYICQQWQEEILPSLCDYIKIPNKSPHFDAKWEEHGYMEQAVNHIANWCKSHAPKGMTLEIVRLKNRTPLLFMEIPGQIDDTVLLYGHLDKQPEMSGWSDDLHPWKPVLKNGLLYGRGGADDGYSAYASLTAIRALEQQGLPYPRCILIIEACEESGSYDLPFYIELLKERIGKPSLVICLDSGAGNYEQLWMTTSLRGNLVGKLTVELINEGVHSGSASGIVADSFRVARQLISRIEDENTGEIKLPQLYCDIPDERIKQAKQCAEILGEQVYSEFPWIDSAKPVIQDKQQLILNRTWRPALTVTGADGFPAIADAGNVMRPVTSLKLSMRLPPLVDPEAASVAMEKALTQNPPYNAKVDFKIQNGGSKGWNAPLLSDWLAKAASEASMTYYDKPAAYMGEGGTIPFMSMLGEQFPKAQFMITGVLGPHSNAHGPNEFLHLDMVKKLTSCVSYVLYSFSQKK	not soluble
MGSDKIHHHHHHMFLQPLLAKKIIAEVKKMYEREVIIVNTDGLIMAGTNDERVGQFHEGALICAKERRSVIITKEDETRLKGVKAGINLPVFFDHDVISVFGLTGEPAEIQPFGELLRKMTELFIKESRHLEQSQWRERMLESFMIDWLQLKEWSPSFLEKAQLLGVDLSSRRQMILIQGYEWSPHDIEQMARSWKSSYPADLFIRWGNERILINHEVPQHEQRDRLLRKILHICSFANTASSQYTAAGAGRAVASSSLTDSYEQAEKALAVSLKRKTPIFEEDLKLDMCLTEISPGTRNEFPQRVLGKALEHQELMNTIRTFFHHDLSLKQTAEDMHIHINTLRYRLAKAEQLTGLRFDRTEDVVTMYVALYFLDQDTK	not soluble
MGSDKIHHHHHHMFNEDTKFASPYEINVLNELTGKNFQEDDLILLEKLSGMDYRKRVYVSEDQIGTLEFDLLDLTWKFIPSPLYYMIEDPKISLKYTKKRLKGKYIKEELLENPEELNEALKDNFEYIGVKIGDFLGVGVRKEDRVKVKDLSRKKELDFQKIADYLEYNKEYLDEMVENSIEILQDAVEKYKRKGYAINASFSGGKDSAVCTLISKEVIPDLDVVFIDTGLEYPETLNYVKDFVDKYDINLDTVDGDNFWDNLEKEGIPTKDNRWCNSACKLMPLKRYLKKKYGNKKVLTIDGSRKYESFTRANLDYERRSGFIDFQTNVFPILDWNSIDIWSYIYSKDIPYNPMYDKGFERIGCYLCPSALNSEFLRVKELHPDYFERWVKYLKKYFPESEVLRGFWRWDELPPKMVELEENMGVDIDKKKRLKRITQL	not soluble
MGSDKIHHHHHHMFQSDLKLIVFQHGFFGERFVANLMNYPNSCPSYGACGIDGCTQCKEGLYNFSKNIIAVFSMPDPTTMPDFIENAEDFLPKVIPEADIAVAINLHPDVLAVMPEKLKGKVKALIVPVEEPRWCSPGLAKQIREKCDELGLEFAAPKPFCNLRPSEEHPTINRMIEEMRIGYPEFEIELLEDGKAYVRISRSQPCGCAYYIGVKLRGFDFSEVKEGKMRELWNVVAEAHHSYPCTASMERDNEYNETLLHVGGYIARHAVNRALGYEGDEDIPEHIKHIVL	not soluble
MGSDKIHHHHHHMFRILTINPGSTSTKLSIFEDERMVKMQNFSHSPDELGRFQKILDQLEFREKIARQFVEETGYSLSSFSAFVSRGGLLDPIPGGVYLVDGLMIKTLKSGKNGEHASNLGAIIAHRFSSETGVPAYVVDPVVVDEMEDVARVSGHPNYQRKSIFHALNQKTVAKEVARMMNKRYEEMNLVVAHMGGGISIAAHRKGRVIDVNNALDGDGPFTPERSGTLPLTQLVDLCFSGKFTYEEMKKRIVGNGGLVAYLGTSDAREVVRRIKQGDEWAKRVYRAMAYQIAKWIGKMAAVLKGEVDFIVLTGGLAHEKEFLVPWITKRVSFIAPVLVFPGSNEEKALALSALRVLRGEEKPKNYSEESRRWRERYDSYLDGILR	not soluble
MGSDKIHHHHHHMFRTVALTGATGFIGRVLIAKLAASGWKVRALARRVPFRQDLPLVEWICGDMNCDSVLCDLVSGTEAVIHCAGAIRGKSWDDFSRTNVTGTRNILRAASGAPSCSRFLFISSLAAREPHLSWYARSKFEAEQLIPGFSGLASTVFRPAAVYGLGDKAMQPFFQAMRYGILLVPGDPGNRFGLIHVDDMVAAIHNWLEAGQPVKGTYEIDDGTSGGYDYTSIAALAEQVLSRPVHCLQIPLGGIRMLARFNLWLAHLLNYAPILTPGKVMEFQHPDWTCDISSLKRELAGWSPVTKLETVLPLLVRM	not soluble
MGSDKIHHHHHHMFSGIAHCADCGSKLYYCTTRYFETRHDHFRCSASQKAVDPCTSHFIRAVVLEEMVLAHMRYVIGFVQRYEDSFRVSIEAERSTEIQKELSAKRKQIAQSQKRVDDLDVLFRKVYEDNASGKLTDERFMQLSRGYDLEQKTLRQMITMLEKEIDQQEQKTTQVEDFIAKCKRYSSLETLTPAILNDLVIKVFVEAPDKSTGKRRQGIHISYNLVGILPPLERFQPVVVERPNKEKAETA	not soluble
MGSDKIHHHHHHMFVSPMLLHSIKEPFNDENYITELKFDGIRLILSKFDNQIKLYTRHNNEVTSKFPELMDLDIPDGTVLDGEVIVAASGGAPDFEAVMERFMSKKSAHNIVYCVFDVIYKDGQSIAAKPLTERKTVLNSLELDHPNVFVIEGTQGNGLAYFNLAKEKNLEGIVIKKANSPYEINKRSHNWLKVINYDYTEVLITGYTKKDIKFLLSYPDGTSAGFMEFMPHAERTKFHSMKQVKSESDEYVFIEPILCNVKHRFKTKHGKLRIPSFESWRV	not soluble
MGSDKIHHHHHHMFYRPEDGHGLPHNPFNAVVTPRPIGWISTRSGAGVNNLAPYSFFNAVAYVPPQVMFASTSTKDDQDGTKDSIANIRETGVFCVNVVEYAMRDAMNKTSAALDKGIDEFAHAGLEAVPCETIDCARVAGVPAALECRLTQIVDLPGEANKVAFGEVVGVHLRDDCLVDGVFDVTRYQPLSRLGYRDYAKVSDPFSLSRPDD	not soluble
MGSDKIHHHHHHMGETNQQGVKNPLQTKEVAERQAKKEKQVVFIYYDHEPTYKLLEDQLVDQGDFELVSTNQSEDAVAILGSLSIDSVVFINTAKSKQMYQLYEKTSGSHHYLHAPFFYIGECSHEEMGQIFANGHEFISSPFNLETFYLKMKAKLDHCTRIKNDRQIDLVTQLYTERFLEKMFHLQVANLVRFKTSFTVIFLSLYNYYELKTKYGLTIADQIVATVSDYIKSQVRDSDLAFRMDAEDEIAVILPNGGQTEAGYFVRRVFEHIPPVTTTENGEPLQFFIELSASIVEINNADVTYEEMLEKGKEALQEAVFKGASTIETVNDFQEPNVEKIKVTVIVEDQVIRSVLVNLLQRLTLEYFELDVQTFFDGEALLESSWHRSAHTHIVIMDDVLPKRNGLEMVHELRKMPNNEKYIVMMLSNRKTEEDVTYAFEMGVDDYITKPFNVKFVESRLKRYLKRLR	not soluble
MGSDKIHHHHHHMGHATEIQVLVVDESAPSRAFIASTLENGGYIVTSVASGEEAVHEVNAAPFDILVTDINLPGMSGLNLLKLLKDSFPDLEVVIVTSNASSFTAIKALRLGAYDFIIKPVDDPAILTNIVGRAVEKQSLTRENRRLMDDMKLKNRELHDALHLMKSANRLCTAISASLDAGEILKRLVEGAVEEVKAKKGYLLLLDRDGSSFSMKVSVGVSRTLAKGFRLRHDQGIAGLVATNNKPLRIDEEVPPPLTHRMLEEDPNGELFTTPGIVTVPLQFKGRVAGVVTLSGRADGRAFTDAEIEFLTTLANHSAIALDTAGAFYKLRKGTS	not soluble
MGSDKIHHHHHHMGINKFNHEGYHDPTPHEALTNIMKKEKAEKKSAFKPLVYICSPYSGDVEGNIKKARSFCRFALDQNCIPIAPHLMFPQFMDDENPEERELAIFMDIVLMGKCSEVWVLGNTISTGMAREIEVAKKRRQTVRYFSPEHEEVESL	not soluble
MGSDKIHHHHHHMGLSTSTKTFAERLEESKKDQFAKAAVAKAQDAQWEKRESARDELGNWQEWRDIAESIRQHTLKYLPHYLTEFSDNVAARGGHVFFAADAKEANDYVKRIVLEKNAKKIVKSKSMVTTEVDIDPMLVSLSDDMDILETDLAEFILQVADWDEPSHIVFPALHKNRDQIREIFAKKLGYEGDNNPVNLARCARDTMRKLFLKSEVGITGCNFAIANTGDINLSTNEGNADLTISIPKTQIVLMGMERIVPSIKEAEILDNMLARSAVGQKLTTYVTFAGQQADDESDGPEDFHVVIVDNGRSNAIGTAFEAVLQCIRCGACLNVCPVYRQIGGHAYGSIYPGPIGSVLSPVLGGYEQYGDLPYASTLCGACTETCPVKIPLHELLIEHRKVMEDDLSMHHDGSFVNFEMNTIGKGTSSPALFGMAINMAHTGLNMLPKAKEVSVEGSLFNYGAVRKAPALAKGWTDVRDLPIAPPHKEQFRQWYKKHKAGK	not soluble
MGSDKIHHHHHHMGNKIYPIGIQNFESLRLDGYFYIDKTALIYQLVKSGRYYFLSRPRRFGKSLLISTLEAYFQGKKELFQGLAMEKLEKDWTKYPILHIDLNTQKYDSPQSLESKLNRTLVTWEKLYGSEPAEDSLSMRFEGTIQRAYEQTGQRVVILVDEYDKPMLQAIGNKELQNSFRETLKAFYGALKSKDGCIKFAMLTGVTKFGKVSVFSDLNNLDDISMWNEYIELCGISEKEIHKNLETELHEFADVQKMTYDSFCEKLRQYYDGYHFTHNSIGMYNPFSLLNAFKRKEFGSYWFETGTPTYLVELLKRHHYNLERMAHEETNAQVLNSIDSESTSPIPVIYQSGYLTIKGYDEEFGIYHLGFPNKEVEEGFIQFLVPYYTSMNNVESPFEI	not soluble
MGSDKIHHHHHHMGNSVLKMMIDAGPIMRTVSLPRGRHSLHTMPTSTGYEVRSDATYDWDGRKRGQTPFTVLQHTISGAGNLRYENSTYRVTPGQTLLVLVPHNHRYWLEPGGRWEFFWISMNGEEALRIHNAILTAMGPIFNLNQQTVEHLADCSQRLIAGGAETPGRASAIAYEAAMALYDDVFGSHPTLSAEYRTMQHVIDHISANLDQSLSVEQLAAVSGLSRAHFSRVFAASEGMPPAEFVLHKRLKRAVKLLTKGSHLSVKEISTMCGFEEPNYFSKVFRRHFGASPTEFRTTGMYSSILQGGVEAETKPARFHRPDVNE	not soluble
MGSDKIHHHHHHMGQRIPVTLGNIAPLAVKPFRPGKLALVCEGGGQRGIFTAGVLDEFMRAGFNPFDLMLGTSAGAQNLSAYMCNQQGYARKVITRYTTSRQFFDPMRFVRGGNLIDLDWLVEATSQQMPLAMNYAEAQFALGKELWLCACRGDDYSASYFSPTPQTWLDLIRASSAIPGFYRSGVLLDGVSYLDGGVSDAIPVQEAARRGAQTIVVIRTVPSQMFYTPQWFKRMERWLGESSLQPLVNLVHHHETTYRAIQQFIEKPPGKLRIFEIYPQRPLRSMALGSRLPALLEDYKTGRQCGRYFLATVGKLLADQPPLLRHAPRIARPAPVVVPPVPVANEAPQATIIPAPQANDPSFDHEDLA	not soluble
